According to publication PMC3338870 (Nature, 2012):

Tests used:
[1] = biological target: CD25 ectodomain (UniProt P01589)
[2] = biological target: T1, γc ectodomain (human, UniProt P31785 23-262, C-terminally biotinylated (staining reagent for yeast)); assay: crystal structure
T1 sequence: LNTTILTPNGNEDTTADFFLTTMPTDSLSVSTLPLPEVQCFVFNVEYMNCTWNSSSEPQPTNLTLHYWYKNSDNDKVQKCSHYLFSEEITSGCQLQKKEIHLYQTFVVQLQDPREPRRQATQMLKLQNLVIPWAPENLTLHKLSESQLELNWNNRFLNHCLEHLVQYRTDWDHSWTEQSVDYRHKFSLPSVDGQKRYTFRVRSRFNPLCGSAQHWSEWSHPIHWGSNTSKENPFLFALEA

CD25 ectodomain, sequence (P01589 22-240): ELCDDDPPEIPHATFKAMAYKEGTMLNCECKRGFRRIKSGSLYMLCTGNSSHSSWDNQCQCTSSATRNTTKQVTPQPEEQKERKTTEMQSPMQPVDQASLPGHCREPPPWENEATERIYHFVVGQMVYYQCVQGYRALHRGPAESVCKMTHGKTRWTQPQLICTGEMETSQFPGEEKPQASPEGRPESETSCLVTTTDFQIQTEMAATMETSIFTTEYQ

Molecule: H9 F42A (from UniProt P60568 21-153) (designed binder)
- Kd [1]: 1400 nM

Molecule: H9 super-2 (IL-2 superkine, second generation) (from UniProt P60568 21-153) (designed binder)
- Kd [1]: 6.6 nM

B1: IL-2Rβ ectodomain (receptor)
chain: AVNGTSQFTCFYNSRANISCVWSQDGALQDTSCQVHAWPDRRRWNQTCELLPVSQASWACNLILGAPDSQKLTTVDIVTLRVLCREGVRWRVMAIQDFKPFENLRLMAPISLQVVHVETHRCNISWEISQASHYFERHLEFEARTLSPGHTWEEAPLLTLKQKQEWICLETLTPDTQYEFQVRVKPLQGEFTTWSPWSQPLAFRTKPAALGKDT
modifications: C-terminally biotinylated (staining reagent for yeast)
- binding result [2]: binds
